US20200317768A1 (published 2020)

T1: cynomolgus monkey FcγRIIa1 extracellular domain, C-terminal His-tag (cynomolgus monkey)
T1 construct: also called cyno FcγRIIa1; cynoFcgRIIa1; not shown: His-tag added to C-terminus
T1 chain: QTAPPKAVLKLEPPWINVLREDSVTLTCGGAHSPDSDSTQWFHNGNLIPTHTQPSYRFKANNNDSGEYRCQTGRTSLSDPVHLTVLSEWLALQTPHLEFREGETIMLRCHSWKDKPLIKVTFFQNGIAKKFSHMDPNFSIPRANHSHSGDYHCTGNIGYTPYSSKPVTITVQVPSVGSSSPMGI

T2: cynomolgus monkey FcγRIIb extracellular domain, C-terminal His-tag (cynomolgus monkey)
T2 construct: also called cyno FcγRIIb; cynoFcγRIIb; not shown: His-tag added to C-terminus
T2 chain: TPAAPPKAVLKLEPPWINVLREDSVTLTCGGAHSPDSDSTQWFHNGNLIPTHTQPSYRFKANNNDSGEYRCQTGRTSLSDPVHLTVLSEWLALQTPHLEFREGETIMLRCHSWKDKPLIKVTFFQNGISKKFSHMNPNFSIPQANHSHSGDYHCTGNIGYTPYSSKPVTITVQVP

T3: human FcγRIIaH extracellular domain, C-terminal His-tag (human, UniProt P12318 34-217)
T3 construct: also called human FcγRIIa (type H); FcgRIIaH; not shown: His-tag added to C-terminus
T3 sequence: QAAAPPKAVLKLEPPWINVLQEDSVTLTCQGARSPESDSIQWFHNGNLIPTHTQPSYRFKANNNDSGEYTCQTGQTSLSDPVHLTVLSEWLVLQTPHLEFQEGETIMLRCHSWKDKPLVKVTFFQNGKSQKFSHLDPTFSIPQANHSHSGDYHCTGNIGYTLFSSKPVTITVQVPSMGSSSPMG


Assays:
Assay in all cases: SPR (BIACORE); KD of SG1 / KD of variant
[1] = biological target: T1, cynomolgus monkey FcγRIIa1 …
[2] = biological target: T2, cynomolgus monkey FcγRIIb extracellular …
[3] = biological target: T3, human FcγRIIaH extracellular domain, …
[4] = biological target: T4, human FcγRIIIaV extracellular domain, C-terminal His-tag (human, UniProt P08637 17-208)
T4 construct: also called FcgRIIIaV; not shown: His-tag added to C-terminus
T4 sequence (P08637 17-208 F176V): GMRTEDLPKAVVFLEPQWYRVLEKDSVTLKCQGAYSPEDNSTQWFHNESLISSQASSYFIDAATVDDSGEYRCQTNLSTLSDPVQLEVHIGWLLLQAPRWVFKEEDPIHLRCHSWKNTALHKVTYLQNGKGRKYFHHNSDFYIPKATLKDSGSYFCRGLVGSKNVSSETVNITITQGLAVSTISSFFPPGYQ

Binder	KD fold (SG1 = 1) [1]	KD fold (SG1 = 1) [2]	KD fold (SG1 = 1) [3]	KD fold (SG1 = 1) [4]
MS_M103205H795-SG1/M103202L889-SK1 (antibody, human IgG1, kappa, Parent antibody with SG1 human heavy chain constant region; also called MS1032LO06-SG1) heavy: not shown light: DIVMTQSPATLSLSPGERATLSCTSSQSVYHANWLSWFQQKPGQPPKLLIYWASTLAYGVPSRFSGSGSGTDFTLTISSLQPEDAATYYCAGGYGGGRYAFGQGTKVEIKRTVAAPSVFIFPPSDEQLKSGTASVVCLLNNFYPREAKVQWKVDNALQSGNSQESVTEQDSKDSTYSLSSTLTLSKADYEKHKVYACEVTHQGLSSPVTKSFNRGEC	1 fold	1 fold	1 fold	1 fold
M103205H795-MY201 / M103202L889-SK1 (antibody, human IgG1, kappa, CH with G236N/H268D/A330K against SG1 (EU numbering); also called MS1032LO06-MY201) heavy: QVTLKESGPVLVKPTETLTLTCTVSGIDLSHDDISWVRQAPGKGLEWVGIISYAGSTYYASWAKGRLTISKDTSKNQVVLTMTNMDPVDTATYYCARGVPAYSHGGDLWGQGTLVTVSSASTKGPSVFPLAPSSKSTSGGTAALGCLVKDYFPEPVTVSWNSGALTSGVHTFPAVLQSSGLYSLSSVVTVPSSSLGTQTYICNVNHKPSNTKVDKKVEPKSCDKTHTCPPCPAPELLNGPSVFLFPPKPKDTLMISRTPEVTCVVVDVSDEDPEVKFNWYVDGVEVHNAKTKPREEQYNSTYRVVSVLTVLHQDWLNGKEYKCKVSNKALPKPIEKTISKAKGQPREPQVYTLPPSREEMTKNQVSLTCLVKGFYPSDIAVEWESNGQPENNYKTTPPVLDSDGSFFLYSKLTVDKSRWQQGNVFSCSVMHEALHNHYTQKSLSLSP light: DIVMTQSPATLSLSPGERATLSCTSSQSVYHANWLSWFQQKPGQPPKLLIYWASTLAYGVPSRFSGSGSGTDFTLTISSLQPEDAATYYCAGGYGGGRYAFGQGTKVEIKRTVAAPSVFIFPPSDEQLKSGTASVVCLLNNFYPREAKVQWKVDNALQSGNSQESVTEQDSKDSTYSLSSTLTLSKADYEKHKVYACEVTHQGLSSPVTKSFNRGEC	2.3 fold	4.2 fold	0.8 fold	0.03 fold
M103205H795-MY101 / M103202L889-SK1 (antibody, human IgG1, kappa, CH with G236N/H268E/A330K/P396M against SG1 (EU numbering); also called MS1032LO06-MY101) heavy: QVTLKESGPVLVKPTETLTLTCTVSGIDLSHDDISWVRQAPGKGLEWVGIISYAGSTYYASWAKGRLTISKDTSKNQVVLTMTNMDPVDTATYYCARGVPAYSHGGDLWGQGTLVTVSSASTKGPSVFPLAPSSKSTSGGTAALGCLVKDYFPEPVTVSWNSGALTSGVHTFPAVLQSSGLYSLSSVVTVPSSSLGTQTYICNVNHKPSNTKVDKKVEPKSCDKTHTCPPCPAPELLNGPSVFLFPPKPKDTLMISRTPEVTCVVVDVSEEDPEVKFNWYVDGVEVHNAKTKPREEQYNSTYRVVSVLTVLHQDWLNGKEYKCKVSNKALPKPIEKTISKAKGQPREPQVYTLPPSREEMTKNQVSLTCLVKGFYPSDIAVEWESNGQPENNYKTTPMVLDSDGSFFLYSKLTVDKSRWQQGNVFSCSVMHEALHNHYTQKSLSLSP light: DIVMTQSPATLSLSPGERATLSCTSSQSVYHANWLSWFQQKPGQPPKLLIYWASTLAYGVPSRFSGSGSGTDFTLTISSLQPEDAATYYCAGGYGGGRYAFGQGTKVEIKRTVAAPSVFIFPPSDEQLKSGTASVVCLLNNFYPREAKVQWKVDNALQSGNSQESVTEQDSKDSTYSLSSTLTLSKADYEKHKVYACEVTHQGLSSPVTKSFNRGEC	2.9 fold	5.1 fold	1.4 fold	0.07 fold
M103205H795-MY205 / M103202L889-SK1 (antibody, human IgG1, kappa, CH with G236N/H268D/Q295L/A330K against SG1 (EU numbering); also called MS1032LO06-MY205) heavy: QVTLKESGPVLVKPTETLTLTCTVSGIDLSHDDISWVRQAPGKGLEWVGIISYAGSTYYASWAKGRLTISKDTSKNQVVLTMTNMDPVDTATYYCARGVPAYSHGGDLWGQGTLVTVSSASTKGPSVFPLAPSSKSTSGGTAALGCLVKDYFPEPVTVSWNSGALTSGVHTFPAVLQSSGLYSLSSVVTVPSSSLGTQTYICNVNHKPSNTKVDKKVEPKSCDKTHTCPPCPAPELLNGPSVFLFPPKPKDTLMISRTPEVTCVVVDVSDEDPEVKFNWYVDGVEVHNAKTKPREELYNSTYRVVSVLTVLHQDWLNGKEYKCKVSNKALPKPIEKTISKAKGQPREPQVYTLPPSREEMTKNQVSLTCLVKGFYPSDIAVEWESNGQPENNYKTTPPVLDSDGSFFLYSKLTVDKSRWQQGNVFSCSVMHEALHNHYTQKSLSLSP light: DIVMTQSPATLSLSPGERATLSCTSSQSVYHANWLSWFQQKPGQPPKLLIYWASTLAYGVPSRFSGSGSGTDFTLTISSLQPEDAATYYCAGGYGGGRYAFGQGTKVEIKRTVAAPSVFIFPPSDEQLKSGTASVVCLLNNFYPREAKVQWKVDNALQSGNSQESVTEQDSKDSTYSLSSTLTLSKADYEKHKVYACEVTHQGLSSPVTKSFNRGEC	3.6 fold	7.2 fold	1.5 fold	0.06 fold
M103205H795-MY335 / M103202L889-SK1 (antibody, human IgG1, kappa, CH with G236T/H268D/Q311R/A330K/D413K against SG1 (EU numbering); also called MS1032LO06-MY335) heavy: QVTLKESGPVLVKPTETLTLTCTVSGIDLSHDDISWVRQAPGKGLEWVGIISYAGSTYYASWAKGRLTISKDTSKNQVVLTMTNMDPVDTATYYCARGVPAYSHGGDLWGQGTLVTVSSASTKGPSVFPLAPSSKSTSGGTAALGCLVKDYFPEPVTVSWNSGALTSGVHTFPAVLQSSGLYSLSSVVTVPSSSLGTQTYICNVNHKPSNTKVDKKVEPKSCDKTHTCPPCPAPELLTGPSVFLFPPKPKDTLMISRTPEVTCVVVDVSDEDPEVKFNWYVDGVEVHNAKTKPREEQYNSTYRVVSVLTVLHRDWLNGKEYKCKVSNKALPKPIEKTISKAKGQPREPQVYTLPPSREEMTKNQVSLTCLVKGFYPSDIAVEWESNGQPENNYKTTPPVLDSDGSFFLYSKLTVKKSRWQQGNVFSCSVMHEALHNHYTQKSLSLSP light: DIVMTQSPATLSLSPGERATLSCTSSQSVYHANWLSWFQQKPGQPPKLLIYWASTLAYGVPSRFSGSGSGTDFTLTISSLQPEDAATYYCAGGYGGGRYAFGQGTKVEIKRTVAAPSVFIFPPSDEQLKSGTASVVCLLNNFYPREAKVQWKVDNALQSGNSQESVTEQDSKDSTYSLSSTLTLSKADYEKHKVYACEVTHQGLSSPVTKSFNRGEC	1.6 fold	2.8 fold	2.4 fold	0.16 fold
M103205H795-MY344 / M103202L889-SK1 (antibody, human IgG1, kappa, CH with G236N/H268D/Q295L/Q311R/A330K/D413K against SG1 (EU numbering); also called MS1032LO06-MY344) heavy: QVTLKESGPVLVKPTETLTLTCTVSGIDLSHDDISWVRQAPGKGLEWVGIISYAGSTYYASWAKGRLTISKDTSKNQVVLTMTNMDPVDTATYYCARGVPAYSHGGDLWGQGTLVTVSSASTKGPSVFPLAPSSKSTSGGTAALGCLVKDYFPEPVTVSWNSGALTSGVHTFPAVLQSSGLYSLSSVVTVPSSSLGTQTYICNVNHKPSNTKVDKKVEPKSCDKTHTCPPCPAPELLNGPSVFLFPPKPKDTLMISRTPEVTCVVVDVSDEDPEVKFNWYVDGVEVHNAKTKPREELYNSTYRVVSVLTVLHRDWLNGKEYKCKVSNKALPKPIEKTISKAKGQPREPQVYTLPPSREEMTKNQVSLTCLVKGFYPSDIAVEWESNGQPENNYKTTPPVLDSDGSFFLYSKLTVKKSRWQQGNVFSCSVMHEALHNHYTQKSLSLSP light: DIVMTQSPATLSLSPGERATLSCTSSQSVYHANWLSWFQQKPGQPPKLLIYWASTLAYGVPSRFSGSGSGTDFTLTISSLQPEDAATYYCAGGYGGGRYAFGQGTKVEIKRTVAAPSVFIFPPSDEQLKSGTASVVCLLNNFYPREAKVQWKVDNALQSGNSQESVTEQDSKDSTYSLSSTLTLSKADYEKHKVYACEVTHQGLSSPVTKSFNRGEC	3.6 fold	5.8 fold	1 fold	0.04 fold
